# Source: patent US20180305451A1 (COMPUGEN, published 2018)
# Residue numbers refer to the chain shown, from its start.
# T1: mouse HIDE1 (mouse, UniProt Q75VT8 22-222)
# T1 construct: Endogenous on EL4, YAC-1, J774A.1/J774A.2 cells; also called AB124611; mHIDE1
# T1 sequence: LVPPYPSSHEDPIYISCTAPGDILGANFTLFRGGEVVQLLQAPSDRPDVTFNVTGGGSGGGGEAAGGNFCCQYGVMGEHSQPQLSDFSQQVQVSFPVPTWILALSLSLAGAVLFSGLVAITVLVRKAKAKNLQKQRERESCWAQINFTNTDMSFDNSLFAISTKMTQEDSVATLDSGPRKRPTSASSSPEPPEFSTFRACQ
# T2: human HIDE1-flag (human, UniProt A8MVS5 20-230)
# T2 construct: Over-expressed on HEK293, SK-MEL-5, CHO-S and CHO-S OKT3 cells (pMSCV or pcDNA3.1); whole cell extracts in WB; Entry includes the signal peptide; also called hHIDE1 Flag
# T2 sequence: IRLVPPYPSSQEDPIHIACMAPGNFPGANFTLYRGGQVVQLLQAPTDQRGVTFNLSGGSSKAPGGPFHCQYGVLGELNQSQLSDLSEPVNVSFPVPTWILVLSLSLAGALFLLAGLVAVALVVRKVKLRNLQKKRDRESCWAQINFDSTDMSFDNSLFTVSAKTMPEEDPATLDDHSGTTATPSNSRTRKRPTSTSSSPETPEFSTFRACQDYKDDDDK
# T3: human HIDE1 (human, UniProt A8MVS5 20-230)
# T3 construct: Endogenous on U937, HL-60, THP-1 cells, blood monocytes, AML blasts and dendritic cells; also called C19orf38; hHIDE1
# T3 sequence: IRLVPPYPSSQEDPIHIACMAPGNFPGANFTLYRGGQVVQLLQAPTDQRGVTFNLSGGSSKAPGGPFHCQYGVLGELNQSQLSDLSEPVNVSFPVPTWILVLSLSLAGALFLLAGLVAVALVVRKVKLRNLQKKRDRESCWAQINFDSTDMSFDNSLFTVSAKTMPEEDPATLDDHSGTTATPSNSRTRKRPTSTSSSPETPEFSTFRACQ
# B1: CPA.12.015 human IgG4 (antibody, V domains shown)
# VH: QVQLQESGPGLVKPSETLSLTCTVSGGSISSSSYYWGWIRQPPGKGLEWIGSIYYSGSTHYNPSLKSRVTISVDTSKNQFSLKLSSVTAADTAVYYCARVYYGSGTGGAFDIWGQGTMVTVSS
# VL: QSVLTQPPSVSGAPGQRVTISCTGSSSNIGAAYDVHWYQQLPGTAPKLLIYGDTIRPSGVPDRFSGSKSGTSASLAITGLQAEDEADYYCQSYDSSLSGSWVFGGGTQLTVLG
# notes: also called CPA.12.015-H4
# B2: CPA.12.005 human IgG4 (antibody, V domains shown)
# VH: QVQLVESGGGVVQPGRSLRVSCAVSGFTFSSYGMHWVRQAPGGGLEWVAVMSYEGSFRHYADSVKGRFTISRDNSKNTLFLQMDSLRAEDTAVYYCARDRPAGYTSGWGILDYWGQGTLVTVSS
# VL: EIVMTQSPATLSLSPGERATLSCRASQSVSSYLAWYQQKPGQAPRLLIYDASNRATGIPARFSGSGSGTDFTLTISSLEPEDFAVYYCQQRSNWPLTFGGGTKVDIKR
# notes: also called CPA.12.005-H4
# B3: CPA.12.014 human IgG4 (antibody, V domains shown)
# VH: QVTLKESGPALVTPTQNLTLTCTVSGGSISSSSYYWGWIRQPPGKGLEWIGSIYYSGSTYYNPSLKSRVTISVDTSKNQFSLKLSSVTAADTAVYYCARRRNSSGWFYFDYWGQGTLVTVSS
# VL: QSVLTQPPSVSGAPRQRVTISCSGSRSNIGDNAVNWYQHPPGKAPKLLIYYDDLLPSGVSDRFSGSKSGTSASLAISGLQSEDEADYYCATWDDSLNGHVFGTGTKLTVLG
# notes: also called CPA.12.014-H4
# B4: CPA.12.009 human IgG4 (antibody, V domains shown)
# VH: QMQLVQSGAEVKKPGASVKVSCKASGYTFTTHAFSWVRQAPGLGLEWMGWISTYNGNTKYEQKFQGRVTLTTDSSTNTAYMELRSLRSDDTAVYYCVRDSRAFDVWGQGTMVTVSS
# VL: DIQLTQSPSFLSASVGDRVTITCRASQGINSYLAWYQQKPGAAPKLLIYAASTLQSGVPSRFSGSGSGTEFTLTISSLQPEDFATYYCQQLNTYPLIFGQGTRLEIKR
# notes: also called CPA.12.009-H4
# B5: CPA.12.007 human IgG4 (antibody, V domains shown)
# VH: EVQLVESGGGVVQPGESLRLSCAASGFTFSSYGFHWVRQSPGEGLEWLAVISYDGTSKSYADSVKGRFTVSRDNSKETLYLQLSSLRREDTALYYCARDTWGYYYGMDVWGQGTTVTVSS
# VL: DIQMTQSPSFLSGSVGDRVSISCRASQDIRSHLAWYQRKPGEAPKLLIYTASSLQGGVPLRFSGSGSGTEFTLTISSLQPEDSATYYCQHLHLYPLTFGGGTKLEIKR
# notes: also called CPA.12.007-H4
# B6: CPA.12.008 human IgG4 (antibody, V domains shown)
# VH: QVQLQESGPGLVTPSETLSLTCTVSGGSISSVSYYWGWVRQPPGKGLEWIGSIYYSGTTAHNPSLKSRVTMAVDTSKNQFSLSLSSVTAADTAVYFCARGWRYYEDYYFDHWGQGTLVTVSS
# VL: AIRMTQSPSSLSASVGDRVTITCQASQDISNYLNWYQQKPGKAPKSLIYAASSLQSGVPSKFSGSGSGTDFTLTISSLQPEDFATYYCQQYYSYPLTFGGGTKVEIKR
# notes: also called CPA.12.008-H4
# B7: CPA.12.006 human IgG4 (antibody, V domains shown)
# VH: EVQLVESGGGVVQPGRSLRLSCAASGFTFSSFAMHWVRQAPGKGPEWLGIILYEGGHVVYADSVRGRLTISRDNSKNTLYLQMDSLRDEDTAVYYCAKGFYHAFDVWGQGTMVTVSS
# VL: QAVLTQPASLSASPGASASLTCTLRSGINVGTYRIYWYQQKPGSPPQYLLRYKSDSDKQQGSGVPSRFSGSKDASANAGILLISGLQSEDEADYYCMIWHSSAWVFGGGTQLTVLG
# notes: also called CPA.12.006-H4
# B8: CPA.12.012 human IgG4 (antibody, V domains shown)
# VH: QVQLVESGGGVVQPGRSLRLSCAASGFTFSSYAMHWVRQAPGKGLEWVAVISYDGSNKYYADSVKGRFTISRDNSKNTLYLQMNSLRAEDTAVYYCARSSGSSWSNIAYWGQGTLVTVSS
# VL: QSVLTQPPSVSGAPGQRVTISCIGSSSNIGAGYDVHWYRQLPGTAPKLLIYDNTNRPSGVPDRFSASKSGISASLAITGLQAEDEADYYCQSYDSNLSGVFGGGTQLTVLG
# notes: also called CPA.12.012-H4; CPA.12.0012-H4
# B9: CPA.12.013 human IgG4 (antibody, V domains shown)
# VH: EVQLVETGGGLIQPGRSLRLSCVASDFRFSNHAMHWVRQAPGKELEWVAVISSDGSNRQYAYSVKGRFTISRDNSKNTLYLEMNILGPEDTAVYFCVRSHLGPEWYYGMDVWGQGTTVTVSS
# VL: DIQMTQSPSSLSASVGDRVTITCQASHDIRKFLNWYQQHPGKAPKLLIYDAAYSEIGVPSRFSGGGSGTDFTFTINNLQPDDFATYYCQQYESLPFTFGPGTKVDIKR
# notes: also called CPA.12.013-H4
# B10: αhHIDE1_AbD25753_hIgG1_Ser_mAb (antibody, V domains shown)
# VH: EVQLVQSGAEVKKPGESLKISCKGSGYSFTNYWIHWVRQMPGKGLEWMGIIDPGNSFTRYSPSFQGQVTISADKSISTAYLQWSSLKASDTAMYYCARGDGLYGGSDGYSMGGFDNWGQGTLVTVSS
# VL: DIQMTQSPSSLSASVGDRVTITCRASQTIWNYLAWYQQKPGKAPKLLIYDASNLQSGVPSRFSGSGSGTDFTLTISSLQPEDFATYYCQQYSHFPHTFGQGTKVEIK
# B11: αhHIDE1_AbD25760_hIgG1_Ser_mAb (antibody, V domains shown)
# VH: QVQLVQSGAEVKKPGSSVKVSCKASGGTFSDYAINWVRQAPGQGLEWMGGIIPNFGTANYAQKFQGRVTITADESTSTAYMELSSLRSEDTAVYYCARGMRSLGGLSYYFDLWGQGTLVTVSS
# VL: B10 VL with T28S, W30N, N31S, A34N, D50A, N53S, S92I, F94Y, H96I
# notes: also called AB-510; Ab-510
# B12: αhHIDE1_AbD25754_hIgG1_Ser_mAb (antibody, V domains shown)
# VH: QVQLVQSGAEVKKPGASVKVSCKASGYTFSGYGMHWVRQAPGQGLEWMGIISPSNGNTNYAQKFQGRVTMTRDTSISTAYMELSRLRSEDTAVYYCAREVYYGLDVWGQGTLVTVSS
# VL: DIQMTQSPSSLSASVGDRVTITCRASQSISSWLNWYQQKPGKAPQLLIYGASSLQSGVPSRFSGSGSGTDFTLTISSLQPEDFATYYCQQYISIPITFGQGTKVEIK
# B13: αhHIDE1_AbD25755_hIgG1_Ser_mAb (antibody, V domains shown)
# VH: QVQLVQSGAEVKKPGSSVKVSCKASGGTFSSYAISWVRQAPGQGLEWMGGIVPKFGTAYYAQKFQGRVTITADESTSTAYMELSSLRSEDTAVYYCARENLVYSAIAIWGQGTLVTVSS
# VL: B12 VL with S28D, S31N, Q45K, Y91V, I92T, I94T, I96F
# Biological target: T1, mouse HIDE1
# Test: FACS on 293T-moHIDE1 cells, human IgG4
# Procedure: (§1) FACS screening of reformatted IgG4 antibodies: The cell lines described in paragraph [001066] (“FACS screening of PPE”) were mixed with FACS buffer containing the purified anti-HIDE1 IgGs or isotype controls. […] Cells were washed again and fluorescence was detected using an Intellicyt HTFC screening system (Intellicyt). Data were analyzed using FCS Express (DeNovo) and plotted for affinity calculations (KD) in GraphPad Prism (GraphPad Software, Inc.). Note that each anti-HIDE1 antibody was tested over a titration range from 0-80 μg/mL.
# (§2) Overview of FACS binding results for human IgG4 antibodies reformatted from Fab screening hits. […] IgGs from the same H-CDR3 family are indicated by the same color, either blue or green. CPA.12.003 & CPA.12.008 have identical heavy chain CDR-3 regions and minor differences in framework regions or other CDRs. The same holds for CPA.12.004 & CPA.12.013. N.B. not binding.
row,Binder,binding result
1,B1,no binding (tested: titration 0-80 µg/mL)
2,B2,no binding (tested: titration 0-80 µg/mL)
3,B3,no binding (tested: titration 0-80 µg/mL)
4,B4,no binding (tested: titration 0-80 µg/mL)
5,B5,no binding (tested: titration 0-80 µg/mL)
6,B6,no binding (tested: titration 0-80 µg/mL)
7,B7,no binding (tested: titration 0-80 µg/mL)
8,B8,no binding (tested: titration 0-80 µg/mL)
9,B9,no binding (tested: titration 0-80 µg/mL)

# Biological target: T2, human HIDE1-flag
# Test: FACS, Geo mean ratio of HEK293 cells over-expressing human HIDE1 Flag to HEK293 empty vector, antibody 10 ug/ml
# Procedure: (§3) FIG. 96: Affinity measurements using FACS application for the anti-human HIDE1 reformatted Fab's on CHO-S cells over-expressing human HIDE1 Flag protein. (A)CHO-S cells over-expressing the human HIDE1 Flag (circle dots) or HEK293 transduced with empty vector (square dots) were analyzed by FACS using Serotec anti-Human HIDE1 reformatted antibodies (1-5) in 7 concentrations-series dilution 1:3, 10-0.01 μg/ml. Detection was carried out using Goat Anti Human-PE secondary Ab. (B) Summary table of Serotec anti-human HIDE1 reformatted antibodies 1-5 FACS analysis, the Geo mean ratio of HEK293 cells over-expressing the human HIDE1 Flag/HEK293 transduced with empty vector and the cross reactive validation, the Geo-mean ratio of HEK293 cells over-expressing the mouse/cyno HIDE1 Flag/HEK293 transduced/transfected with empty vector. And Kd (nM) for each reformatted Fab.
# The performance of the reformatted Serotec's antibodies against human HIDE1, in FACS application were tested using HEK293 cell over-expressing human HIDE1 Flag, mouse HIDE1 or cyno HIDE1. HEK293 cells transduced/transfected with an empty vector were used as a negative control
row,"rMFI OX/EV, 10ug/ml, hHIDE1",Binder
1,276,B10
2,117,B11
3,270,B12
4,236,B13

# Biological target: T2, human HIDE1-flag
# Test: FACS titration on CHO-S cells over-expressing human HIDE1 Flag (curves in FIG. 96A)
# Procedure: as §3
# The affinity The affinity measurements of the reformatted Serotec's Ab's (full hIgG1 Abs) against human HIDE1, using FACS application were tested using CHO-S cell over-expressing human HIDE1. CHO-S cells transduced with an empty vector were used as a negative control.
# As shown in FIG. 96. the binding of 5 out of 5 anti-human HIDE1 reformatted Ab's (1-5) to the CHO-S cells over-expressing human HIDE1 Flag protein (circle dots) is higher than the binding of these reformatted Ab's to the empty vector cells (square dots). Two of the five antibodies (2 and 3) reaches saturation at the concentrations that were measured. The Kd value and R square are represented in the figure.
row,Kd [nM],Binder
1,10.8,B10
2,96.7,B11
3,9.85,B12
4,45.4,B13

# Biological target: T3, human HIDE1
# Test: FACS titration on 293T-huHIDE1 cells, human IgG4 (preliminary FACS KD)
# Procedure: as §1, §2
row,Kd [nM],Binder
1,11,B1
2,4,B2
3,13,B3
4,1.7,B4
5,14,B5
6,1.3,B6
7,2.5,B7
8,1.3,B8
9,2.6,B9
